Reference: the supplement of paper PMC10126150
± gives the standard deviation of the averaged measurements.

System: ATP
Assay: switch fluorescence ratio, 500 uM ATP over buffer (Cy3 cluster intensity, sum of 5 cycles each) (fold (ratio)); higher = stronger signal-on switching upon ATP binding; sequences stand for … in TCGTCGGCAGCGTCAGATGTGTATAAGAGACAGTTTTTTTTTTTTTTTTTTTTTTTTT…TC
Conditions: aptamer strand: ATP DNA aptamer (quencher-CACCTGGGGGAGTATTGCGGAGGAAGG + anchor), 100 nM annealed; ATP concentration: 500 uM
Method in brief: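 The fluorescence ratio divides summed target-cycle Cy3 intensity by summed buffer-cycle Cy3 intensity for each cluster and is averaged per switch-domain sequence. Cy3-labelled switching-strand clusters on a modified Illumina MiSeq flow-cell were annealed to 100 nM quencher-labelled ATP aptamer, then imaged in selection buffer and again after 15 min with 500 uM ATP at 22 °C. Five such cycles were run, with NaOH stripping and re-annealing between them, and clusters outside 100-1000 RFU were excluded.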
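Further: ATP exposure 15 min at 22 °C before imaging.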

Sequence	switch fluorescence ratio
TAGAGGGCGG	1.03 ± 0.012
TAGAGGGGCG	0.946 ± 0.065
TAGAGTAGCT	1 ± 0.035
TAGAGTGGGC	0.991 ± 0.013
TAGATAATGG	1.02 ± 0.014
TAGATAGGGA	1.01 ± 0.024
TAGATCAATG	1.02 ± 0.024
TAGATCGCTG	0.931 ± 0.028
TAGATGTTGA	0.973 ± 0.036
TAGATTCTGA	1.01 ± 0.032
TAGATTGACC	1.04 ± 0.033
TAGATTGGAG	0.987 ± 0.0072
TAGATTGGTG	0.991 ± 0.04
TAGCAACGCA	1.03 ± 0.015
TAGCAACGGG	1.03 ± 0.015
TAGCAATTAG	2.45 ± 0.031
TAGCACCATT	1.1 ± 0.072
TAGCAGACGG	1.03 ± 0.015
TAGCAGGGTG	1.14 ± 0.019
TAGCATTGGT	0.9903 ± 0.0016
TAGCCGGAGG	0.986 ± 0.018
TAGCCGGGGT	1.04 ± 0.054
TAGCCGGTTC	1.026 ± 0.01
TAGCCTGGAC	1.1 ± 0.031
TAGCCTTAGA	0.983 ± 0.02

Sequence	switch fluorescence ratio
TAGCGAAAAA	0.992 ± 0.016
TAGCGCTCTA	0.999 ± 0.024
TAGCGCTGGT	1.01 ± 0.02
TAGCGGCGGC	1.01 ± 0.016
TAGCGGGTTT	1.03 ± 0.023
TAGCGGTGTC	1.07 ± 0.021
TAGCGGTTGG	1.022 ± 0.0053
TAGCGTTTCC	1.097 ± 0.0047
TAGCTCATTA	0.979 ± 0.019
TAGCTGAAGT	0.975 ± 0.038
TAGCTGTACA	1.01 ± 0.015
TAGCTTTCGA	1.06 ± 0.031
TAGGAAGTCG	0.995 ± 0.047
TAGGACCTGT	0.9849 ± 0.0073
TAGGACGGTG	0.992 ± 0.034
TAGGACTCTC	1.01 ± 0.02
TAGGAGAAGT	0.991 ± 0.042
TAGGAGAGCC	1.03 ± 0.017
TAGGAGATGA	1 ± 0.042
TAGGAGGCTC	1.03 ± 0.014
TAGGAGGGA	1 ± 0.024
TAGGAGTGCT	0.9896 ± 0.0066
TAGGCAGATG	1.01 ± 0.02
TAGGCAGGCG	1.01 ± 0.1
TAGGCAGGGC	1.04 ± 0.11

Sequence	switch fluorescence ratio
TAGGCATTTG	1.006 ± 0.0069
TAGGCCAAGT	0.989 ± 0.026
TAGGCCCTTG	1.01 ± 0.043
TAGGCCGTTT	1 ± 0.084
TAGGCGGCAC	1.03 ± 0.046
TAGGCGGGGG	1 ± 0.02
TAGGCTACGG	1.03 ± 0.014
TAGGCTGATA	1.01 ± 0.029
TAGGCTGGGC	0.9673 ± 0.0041
TAGGCTGGGG	0.998 ± 0.023
TAGGCTTTAG	1.01 ± 0.012
TAGGGAAATC	0.983 ± 0.013
TAGGGATGGT	0.979 ± 0.022
TAGGGATGTA	1.01 ± 0.016
TAGGGCAACG	1.04 ± 0.025
TAGGGCACCC	0.988 ± 0.058
TAGGGCAGAG	0.994 ± 0.021
TAGGGCCAGC	1.04 ± 0.033
TAGGGCCCGG	1.03 ± 0.077
TAGGGCGCCG	1.0192 ± 0.00067
TAGGGCTCAG	0.9928 ± 0.0098
TAGGGCTGGG	0.972 ± 0.048
TAGGGGAAGC	0.989 ± 0.031
TAGGGGAGAT	1.027 ± 0.0098
TAGGGGAGGG	1.03 ± 0.041

Sequence	switch fluorescence ratio
TAGGGGCACA	1.01 ± 0.033
TAGGGGGCTA	0.995 ± 0.027
TAGGGGGCTG	1.01 ± 0.02
TAGGGGGGAG	0.981 ± 0.024
TAGGGGGGGC	0.978 ± 0.022
TAGGGGGTAT	1.02 ± 0.019
TAGGGGTA	1.01 ± 0.021
TAGGGGTAGC	0.985 ± 0.04
TAGGGGTGAG	1.04 ± 0.021
TAGGGGTGGC	0.956 ± 0.099
TAGGGTCACG	0.99721 ± 0.00082
TAGGGTCTCA	1 ± 0.031
TAGGGTGGG	1.024 ± 0.0028
TAGGGTGTGT	0.952 ± 0.016
TAGGGTTCAA	0.989 ± 0.02
TAGGGTTGGC	0.969 ± 0.013
TAGGGTTGGT	1.01 ± 0.046
TAGGGTTTTG	1.01 ± 0.042
TAGGGTTTTT	1.03 ± 0.038
TAGGTAACCG	0.943 ± 0.056
TAGGTAGGAG	1 ± 0.031
TAGGTAGTGG	1.01 ± 0.027
TAGGTATATT	0.97 ± 0.019
TAGGTCATAT	1 ± 0.022
TAGGTCATGG	0.985 ± 0.011

Sequence	switch fluorescence ratio
TAGGTCCCTG	0.99 ± 0.042
TAGGTCCTGG	0.9888 ± 0.0074
TAGGTCTTAA	0.995 ± 0.013
TAGGTGAAAC	0.988 ± 0.016
TAGGTGCCTT	1.006 ± 0.0053
TAGGTGGGAT	1.05 ± 0.038
TAGGTTAACT	0.956 ± 0.024
TAGGTTACGG	0.984 ± 0.024
TAGGTTAGTG	0.951 ± 0.01
TAGGTTCTTT	0.995 ± 0.022
TAGGTTGTAT	0.978 ± 0.018
TAGGTTTAAA	0.991 ± 0.039
TAGGTTTCTT	1.01 ± 0.031
TAGGTTTGGG	0.962 ± 0.025
TAGTAAGGGA	1 ± 0.031
TAGTAAGGGC	1.02 ± 0.033
TAGTAATCGA	1.02 ± 0.018
TAGTACTGCT	1.02 ± 0.015
TAGTAGAGCT	1.009 ± 0.002
TAGTAGGAGT	1.02 ± 0.035
TAGTAGGCCA	1.01 ± 0.055
TAGTAGGGTG	1.03 ± 0.036
TAGTATGGGT	0.9692 ± 0.0077
TAGTATGTGG	0.9612 ± 0.0025
TAGTATTACC	0.9943 ± 0.0081

Sequence	switch fluorescence ratio
TAGTCAGCC	1.01 ± 0.029
TAGTCAGGGG	0.9852 ± 0.0041
TAGTCATATC	1.01 ± 0.032
TAGTCATTAA	1.002 ± 0.0028
TAGTCGAGAC	1.01 ± 0.018
TAGTCGTTAG	1 ± 0.037
TAGTCTACGA	1.03 ± 0.026
TAGTCTATCG	0.969 ± 0.025
TAGTGAAAGA	0.9855 ± 0.0031
TAGTGCAATA	1.6994 ± 0.00043
TAGTGCGCGC	1.03 ± 0.025
TAGTGCTGCA	0.9692 ± 0.0012
TAGTGGACTC	1.02 ± 0.034
TAGTGGAGTG	1 ± 0.011
TAGTGGCCTG	0.955 ± 0.023
TAGTGGGCTG	0.972 ± 0.025
TAGTGGGGTG	0.969 ± 0.01
TAGTGGGTGG	0.989 ± 0.01
TAGTGGTGGA	0.9979 ± 0.009
TAGTGGTTT	0.986 ± 0.024
TAGTTACACG	1.01 ± 0.025
TAGTTATCGT	1.01 ± 0.027
TAGTTATGAA	1.01 ± 0.016
TAGTTATTA	0.989 ± 0.026
TAGTTCTCTT	0.989 ± 0.026

Sequence	switch fluorescence ratio
TAGTTGAGTG	0.987 ± 0.037
TAGTTGGTTT	0.999 ± 0.037
TAGTTTGAAT	1.01 ± 0.024
TAGTTTTACC	1 ± 0.013
TAGTTTTCAT	1.021 ± 0.01
TAGTTTTCGC	1 ± 0.031
TAGTTTTTCG	1 ± 0.025
TATAAAAAAT	1 ± 0.028
TATAAAAATC	1.07 ± 0.084
TATAAATAGT	0.96 ± 0.046
TATAACGGTT	1.034 ± 0.0074
TATAACTCAT	1.02 ± 0.029
TATAAGGGCG	0.976 ± 0.058
TATAAGGGGT	0.9862 ± 0.0083
TATAAGTAGG	0.968 ± 0.028
TATAAGTGAT	1.17 ± 0.26
TATAATAGTA	1.0013 ± 0.001
TATAATATAT	1 ± 0.029
TATAATCCTG	0.992 ± 0.035
TATAATGGCT	0.9555 ± 0.0054
TATAATGGGC	0.965 ± 0.031
TATAATGTGC	1.04 ± 0.012
TATAATTCTA	0.9844 ± 0.0075
TATAATTCTG	1.04 ± 0.029
TATACGCGCC	1.12 ± 0.083

Sequence	switch fluorescence ratio
TATACGGAAT	1.16 ± 0.051
TATACGGGTG	1.073 ± 0.0046
TATACGTCTA	1.07 ± 0.043
TATACGTGCC	1.03 ± 0.025
TATACTACGG	1.09 ± 0.024
TATACTTGGC	1.07 ± 0.059
TATAGCATGT	1.038 ± 0.007
TATAGCGCTT	0.9905 ± 0.0035
TATAGCTAAT	1.027 ± 0.0041
TATAGGAAAA	1.35 ± 0.61
TATAGGATTT	1 ± 0.08
TATAGGGAGG	0.988 ± 0.027
TATAGGGGGG	1 ± 0.017
TATAGGTTTT	1 ± 0.081
TATAGTACGG	1.049 ± 0.0095
TATAGTGGTC	0.971 ± 0.035
TATAGTTGTT	0.992 ± 0.018
TATATACTGT	1.02 ± 0.03
TATATCAGGT	1.018 ± 0.0066
TATATCGGGG	0.992 ± 0.03
TATATCGGGT	0.9968 ± 0.0072
TATATCTTTT	1.04 ± 0.026
TATATGAGAC	1.003 ± 0.0083
TATATGAGGG	1 ± 0.057
TATATGATGA	0.996 ± 0.015
